From paper PMC10641069, “Intra- and inter-molecular regulation by intrinsically-disordered regions governs PUF protein RNA binding” (Nature Communications, 2023)
Substitutions are numbered along the chain they refer to. Where two headings read alike, the source gives them in different places.

How the values were obtained:
FBF-2 RBD + CT = target: T1, FBF-2 RBD + CT (Caenorhabditis elegans, UniProt Q09312); assay: ITC, peptide into FBF-2 RBD + CT, no RNA; assay type: binding, C. elegans; conditions: 20 °C, pH 7.4
T1 construct: A cDNA fragment encoding C. elegans FBF-2 RBD + CT (residues 164-632) was cloned into the pSMT3 vector; His6-SUMO (N, cleaved yes); made in house; host or cells: E. coli BL21-CodonPlus (DE3)-RIL
T1 sequence (Q09312 whole entry, looked up): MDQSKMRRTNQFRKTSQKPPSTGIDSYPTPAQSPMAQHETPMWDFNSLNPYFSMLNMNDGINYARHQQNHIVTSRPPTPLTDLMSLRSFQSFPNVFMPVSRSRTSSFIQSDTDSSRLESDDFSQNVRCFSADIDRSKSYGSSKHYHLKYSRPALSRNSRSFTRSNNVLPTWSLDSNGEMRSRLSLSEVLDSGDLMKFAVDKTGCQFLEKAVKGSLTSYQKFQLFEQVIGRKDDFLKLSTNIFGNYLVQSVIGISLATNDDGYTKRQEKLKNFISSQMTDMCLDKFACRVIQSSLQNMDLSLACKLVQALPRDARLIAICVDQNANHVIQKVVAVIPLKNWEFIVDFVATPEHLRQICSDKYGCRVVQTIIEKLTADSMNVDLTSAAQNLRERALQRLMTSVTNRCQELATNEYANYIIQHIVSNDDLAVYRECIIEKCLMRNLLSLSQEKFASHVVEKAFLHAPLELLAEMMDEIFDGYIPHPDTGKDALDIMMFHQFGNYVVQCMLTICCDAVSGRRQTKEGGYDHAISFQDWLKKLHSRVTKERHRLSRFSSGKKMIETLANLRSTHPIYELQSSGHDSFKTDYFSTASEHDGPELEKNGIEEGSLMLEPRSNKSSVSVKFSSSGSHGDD

FBF-2 RBD + CT L610A = target: T2, FBF-2 RBD + CT L610A (Caenorhabditis elegans, UniProt Q09312, L610A); assay type: binding, C. elegans; conditions: pH 7.4
T2 construct: A cDNA fragment encoding C. elegans FBF-2 RBD + CT (residues 164-632) was cloned into the pSMT3 vector; His6-SUMO (N, cleaved yes); made in house; host or cells: E. coli BL21-CodonPlus (DE3)-RIL (as for wild type)
T2 sequence (Q09312 164-632 L610A): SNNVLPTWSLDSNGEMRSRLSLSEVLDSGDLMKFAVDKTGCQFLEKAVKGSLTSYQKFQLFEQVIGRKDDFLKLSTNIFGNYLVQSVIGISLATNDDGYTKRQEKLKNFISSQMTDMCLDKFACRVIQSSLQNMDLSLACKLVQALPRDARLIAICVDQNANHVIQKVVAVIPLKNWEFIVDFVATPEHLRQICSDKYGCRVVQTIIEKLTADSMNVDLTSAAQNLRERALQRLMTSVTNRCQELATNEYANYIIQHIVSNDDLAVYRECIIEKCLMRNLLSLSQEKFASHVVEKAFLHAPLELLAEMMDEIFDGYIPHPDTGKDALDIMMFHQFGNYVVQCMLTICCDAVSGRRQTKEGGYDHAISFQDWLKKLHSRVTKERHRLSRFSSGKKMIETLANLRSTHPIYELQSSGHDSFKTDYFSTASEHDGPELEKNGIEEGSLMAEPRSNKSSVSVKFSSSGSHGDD

FBF-2 RBD+CT Loop6A = target: T3, FBF-2 RBD+CT Loop6A (Caenorhabditis elegans, UniProt Q09312 164-632, E592A;D594A;E597A;E599A;E604A;E605A); assay: EMSA; no LST-1; EMSA: FBF-2 in 20 mM HEPES pH 7.4, 150 mM NaCl, 0.5 mM TCEP mixed 1:1 with 5 nM final RNA in 10 mM HEPES pH 7.4, 0.01% Tween 20, 0.1 mg/ml BSA, 0.1 mg/ml yeast; conditions: protein: recombinant; tags: none (His6-SUMO removed with Ulp1); label: 3'-Cy5
T3 sequence: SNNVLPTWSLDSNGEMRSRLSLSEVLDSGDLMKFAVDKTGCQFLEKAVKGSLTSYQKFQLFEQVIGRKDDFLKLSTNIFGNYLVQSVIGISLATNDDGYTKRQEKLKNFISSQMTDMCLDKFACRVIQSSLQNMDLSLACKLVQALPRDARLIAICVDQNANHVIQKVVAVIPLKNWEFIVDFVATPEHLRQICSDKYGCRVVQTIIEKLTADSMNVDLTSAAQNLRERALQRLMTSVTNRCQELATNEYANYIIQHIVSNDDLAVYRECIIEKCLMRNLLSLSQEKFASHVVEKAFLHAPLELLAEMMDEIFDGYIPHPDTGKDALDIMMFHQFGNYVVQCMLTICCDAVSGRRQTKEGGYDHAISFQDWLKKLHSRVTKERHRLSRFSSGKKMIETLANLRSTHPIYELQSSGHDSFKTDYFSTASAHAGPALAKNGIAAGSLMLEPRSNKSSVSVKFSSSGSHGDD

[1] = target: T4, FBF-2 RBD+CT;LST-1 A peptide (Caenorhabditis elegans;Caenorhabditis …, UniProt Q09312;P91820 164-632;19-50, |); assay: EMSA; 150 uM LST-1 A; EMSA: FBF-2 in 20 mM HEPES pH 7.4, 150 mM NaCl, 0.5 mM TCEP mixed 1:1 with 5 nM final RNA in 10 mM HEPES pH 7.4, 0.01% Tween 20, 0.1 mg/ml BSA, 0.1 mg/ml yeast; conditions: protein: recombinant;recombinant; tags: none (His6-SUMO removed with Ulp1);none (His6-SUMO removed with Ulp1); copies: 1;1; label: 3'-Cy5
T4 sequence 1: T3 sequence with A429E, A431D, A434E, A436E, A441E, A442E
T4 sequence 2: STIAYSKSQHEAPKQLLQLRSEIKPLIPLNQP

Molecule | -T∆S (FBF-2 RBD + CT; replicate 1) [kcal/mol] | ∆G (FBF-2 RBD + CT; replicate 1) [kcal/mol] | ∆H (FBF-2 RBD + CT; replicate 1) [kcal/mol] | -T∆S (FBF-2 RBD + CT; replicate 2) [kcal/mol] | ∆G (FBF-2 RBD + CT; replicate 2) [kcal/mol] | ∆H (FBF-2 RBD + CT; replicate 2) [kcal/mol] | ∆G (FBF-2 RBD + CT L610A) [kcal/mol] | -T∆S (FBF-2 RBD + CT L610A; replicate 1, 20 °C) [kcal/mol] | ∆G (FBF-2 RBD + CT L610A; replicate 1, 20 °C) [kcal/mol] | ∆H (FBF-2 RBD + CT L610A; replicate 1, 20 °C) [kcal/mol] | -T∆S (FBF-2 RBD + CT L610A; replicate 2, 20 °C) [kcal/mol] | ∆H (FBF-2 RBD + CT L610A; replicate 2, 20 °C) [kcal/mol] | Kd (FBF-2 RBD+CT Loop6A) [nM] | Kd [1] [nM]
LST-1 B: LST-1 B peptide, residues 67–98, expressed in E. coli (SSSPQQRSGLRSQKLHLTYIEKNKRVRAMIPQ; left off: His6-SUMO, N-terminal, cleaved) | 2.08 | -7.62 | -9.7 | 2.27 | -7.36 | -9.61 | -9.85 | 6 | -9.56 | -15.5 | 6.98 | -16.8 |  | 
AUCAUGUGCCAUAC (ssRNA) [gld-1 FBEa RNA (EMSA)] |  |  |  |  |  |  |  |  |  |  |  |  | 101 ± 21 | 114 ± 10
